From the supplement of paper PMC10065799, “High-throughput profiling of sequence recognition by tyrosine kinases and SH2 domains using bacterial peptide display” (eLife, 2023)

What was measured:
AncSZ = test: phosphorylation enrichment, bacterial display (enrichment ratio); higher = better substrate or ligand; peptides without Tyr show the background
MERTK = MERTK (UniProt Q12866); test: as above
EPHB1 = EPHB1 (UniProt P54762); test: as above
c-Abl (mouse) = test: as above
FGFR1 = FGFR1 (UniProt P11362); test: as above
FGFR3 = FGFR3 (UniProt P22607); test: as above
Fyn = Fyn (UniProt P06241); test: as above
Fer (mouse) = test: as above
EPHB2 = EPHB2 (UniProt P29323); test: as above
Fes = Fes (UniProt P07332); test: as above
Hck = Hck (UniProt P08631); test: as above
c-Src = test: as above
Jak2 = Jak2 (UniProt O60674); test: as above
c-Src SH2 = test: SH2 binding enrichment of the phosphorylated peptide, bacterial display (enrichment ratio); higher = better substrate or ligand; peptides without Tyr show the background
SHP2-C SH2 = test: as above
Grb2 SH2 = Grb2 SH2 (UniProt P62993); test: as above
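Wherever SH2 binding enrichment of the phosphorylated peptide, bacterial display is given: peptide library displayed on the E. coli surface as eCPX fusions, selected cells deep-sequenced, score is each peptide's frequency after selection divided by its frequency in the input.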
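Wherever phosphorylation enrichment, bacterial display is given: 11-residue human phosphosite peptides and single-mutation variants displayed on the E. coli surface, counted by deep sequencing, each peptide's frequency after selection divided by its frequency in the unselected input library; frequency after pTyr selection over input frequency; kinase dosed for 20-30% of maximal phosphorylation in three min.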

FGFR3, sequence (P22607 whole entry, looked up): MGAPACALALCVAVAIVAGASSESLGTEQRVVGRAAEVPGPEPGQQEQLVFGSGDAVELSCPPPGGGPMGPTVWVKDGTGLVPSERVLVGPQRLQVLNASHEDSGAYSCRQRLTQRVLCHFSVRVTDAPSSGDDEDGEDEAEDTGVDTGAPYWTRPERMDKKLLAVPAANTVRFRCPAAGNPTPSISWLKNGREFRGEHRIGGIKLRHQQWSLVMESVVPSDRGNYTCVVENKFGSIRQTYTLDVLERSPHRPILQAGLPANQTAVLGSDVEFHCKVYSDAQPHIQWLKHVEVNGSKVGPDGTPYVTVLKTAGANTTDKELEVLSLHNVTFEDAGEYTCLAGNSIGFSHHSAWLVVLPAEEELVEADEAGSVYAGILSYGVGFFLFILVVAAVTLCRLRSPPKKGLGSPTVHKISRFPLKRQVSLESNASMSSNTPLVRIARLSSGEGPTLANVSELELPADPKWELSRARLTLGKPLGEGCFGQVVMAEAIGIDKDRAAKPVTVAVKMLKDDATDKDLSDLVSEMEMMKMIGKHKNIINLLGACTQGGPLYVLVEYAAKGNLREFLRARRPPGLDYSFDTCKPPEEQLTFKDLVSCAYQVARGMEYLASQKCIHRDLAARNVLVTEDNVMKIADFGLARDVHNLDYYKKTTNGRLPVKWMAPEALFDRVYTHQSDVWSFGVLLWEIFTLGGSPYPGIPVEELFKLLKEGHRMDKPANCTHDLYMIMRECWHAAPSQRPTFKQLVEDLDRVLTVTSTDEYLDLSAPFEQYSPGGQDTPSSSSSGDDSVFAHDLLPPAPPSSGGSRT
Fyn, sequence (P06241 whole entry, looked up): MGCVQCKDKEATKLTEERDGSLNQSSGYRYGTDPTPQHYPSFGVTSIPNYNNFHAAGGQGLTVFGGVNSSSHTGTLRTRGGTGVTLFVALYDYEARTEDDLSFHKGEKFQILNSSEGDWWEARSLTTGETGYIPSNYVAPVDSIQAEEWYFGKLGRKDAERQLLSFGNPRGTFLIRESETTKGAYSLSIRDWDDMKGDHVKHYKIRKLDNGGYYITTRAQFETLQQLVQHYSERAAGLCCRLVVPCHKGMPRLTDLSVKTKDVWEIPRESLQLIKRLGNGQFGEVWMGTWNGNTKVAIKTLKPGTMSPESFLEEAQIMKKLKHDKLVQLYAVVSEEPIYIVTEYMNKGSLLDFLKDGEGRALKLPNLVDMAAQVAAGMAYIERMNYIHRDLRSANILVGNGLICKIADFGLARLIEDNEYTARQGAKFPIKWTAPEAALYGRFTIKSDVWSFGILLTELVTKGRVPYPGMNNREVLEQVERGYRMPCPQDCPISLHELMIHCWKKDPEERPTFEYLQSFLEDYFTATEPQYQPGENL
Jak2, sequence (O60674 whole entry, looked up): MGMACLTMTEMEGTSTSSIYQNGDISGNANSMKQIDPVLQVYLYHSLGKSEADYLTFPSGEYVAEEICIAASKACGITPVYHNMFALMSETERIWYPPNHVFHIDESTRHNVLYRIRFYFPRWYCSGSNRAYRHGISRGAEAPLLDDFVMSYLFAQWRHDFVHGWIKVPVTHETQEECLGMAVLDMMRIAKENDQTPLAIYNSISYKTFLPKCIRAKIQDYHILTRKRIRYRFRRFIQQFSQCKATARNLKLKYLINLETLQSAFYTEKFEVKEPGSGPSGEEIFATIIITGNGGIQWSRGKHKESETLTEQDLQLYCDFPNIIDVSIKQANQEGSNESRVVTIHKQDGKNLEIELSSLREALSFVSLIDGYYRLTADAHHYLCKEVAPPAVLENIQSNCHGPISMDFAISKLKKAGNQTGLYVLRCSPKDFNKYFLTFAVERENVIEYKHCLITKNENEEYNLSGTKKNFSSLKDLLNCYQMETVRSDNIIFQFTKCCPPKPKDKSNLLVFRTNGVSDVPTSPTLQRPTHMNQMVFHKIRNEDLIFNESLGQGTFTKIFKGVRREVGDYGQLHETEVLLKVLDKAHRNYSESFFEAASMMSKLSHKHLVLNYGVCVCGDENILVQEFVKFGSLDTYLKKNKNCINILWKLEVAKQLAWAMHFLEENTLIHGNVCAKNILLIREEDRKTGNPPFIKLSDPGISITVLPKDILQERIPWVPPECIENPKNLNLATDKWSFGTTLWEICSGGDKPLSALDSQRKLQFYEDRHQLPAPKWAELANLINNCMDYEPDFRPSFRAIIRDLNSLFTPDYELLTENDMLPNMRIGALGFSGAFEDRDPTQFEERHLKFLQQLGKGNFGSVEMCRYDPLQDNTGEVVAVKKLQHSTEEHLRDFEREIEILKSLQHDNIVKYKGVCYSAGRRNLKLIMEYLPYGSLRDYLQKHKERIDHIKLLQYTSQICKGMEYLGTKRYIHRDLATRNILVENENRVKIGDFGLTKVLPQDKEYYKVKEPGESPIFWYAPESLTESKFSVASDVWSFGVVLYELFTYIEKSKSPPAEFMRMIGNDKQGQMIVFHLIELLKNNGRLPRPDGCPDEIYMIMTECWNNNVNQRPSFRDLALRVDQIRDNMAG
Grb2 SH2, sequence (P62993 whole entry, looked up, the tested form may be a part): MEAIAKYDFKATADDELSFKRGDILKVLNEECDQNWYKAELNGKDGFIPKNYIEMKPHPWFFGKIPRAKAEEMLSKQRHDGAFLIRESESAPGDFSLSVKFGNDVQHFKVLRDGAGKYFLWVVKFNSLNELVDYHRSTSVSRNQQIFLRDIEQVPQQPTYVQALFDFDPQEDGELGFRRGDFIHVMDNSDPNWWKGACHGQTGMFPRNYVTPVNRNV
Hck, sequence (P08631 whole entry, looked up): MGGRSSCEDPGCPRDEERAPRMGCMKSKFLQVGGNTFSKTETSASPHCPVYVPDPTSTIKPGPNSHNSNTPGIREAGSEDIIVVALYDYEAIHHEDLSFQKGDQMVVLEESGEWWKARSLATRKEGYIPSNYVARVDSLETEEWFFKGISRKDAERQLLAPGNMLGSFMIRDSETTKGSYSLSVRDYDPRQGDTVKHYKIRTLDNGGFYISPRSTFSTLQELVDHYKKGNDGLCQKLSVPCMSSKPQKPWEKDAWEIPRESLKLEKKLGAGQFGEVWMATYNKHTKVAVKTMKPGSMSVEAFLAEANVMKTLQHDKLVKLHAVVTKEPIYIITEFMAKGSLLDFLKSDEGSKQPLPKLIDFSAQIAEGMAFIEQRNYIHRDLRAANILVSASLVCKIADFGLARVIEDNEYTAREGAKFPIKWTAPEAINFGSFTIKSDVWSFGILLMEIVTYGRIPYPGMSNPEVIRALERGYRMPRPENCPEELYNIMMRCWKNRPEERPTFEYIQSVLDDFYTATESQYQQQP
FGFR1, sequence (P11362 whole entry, looked up): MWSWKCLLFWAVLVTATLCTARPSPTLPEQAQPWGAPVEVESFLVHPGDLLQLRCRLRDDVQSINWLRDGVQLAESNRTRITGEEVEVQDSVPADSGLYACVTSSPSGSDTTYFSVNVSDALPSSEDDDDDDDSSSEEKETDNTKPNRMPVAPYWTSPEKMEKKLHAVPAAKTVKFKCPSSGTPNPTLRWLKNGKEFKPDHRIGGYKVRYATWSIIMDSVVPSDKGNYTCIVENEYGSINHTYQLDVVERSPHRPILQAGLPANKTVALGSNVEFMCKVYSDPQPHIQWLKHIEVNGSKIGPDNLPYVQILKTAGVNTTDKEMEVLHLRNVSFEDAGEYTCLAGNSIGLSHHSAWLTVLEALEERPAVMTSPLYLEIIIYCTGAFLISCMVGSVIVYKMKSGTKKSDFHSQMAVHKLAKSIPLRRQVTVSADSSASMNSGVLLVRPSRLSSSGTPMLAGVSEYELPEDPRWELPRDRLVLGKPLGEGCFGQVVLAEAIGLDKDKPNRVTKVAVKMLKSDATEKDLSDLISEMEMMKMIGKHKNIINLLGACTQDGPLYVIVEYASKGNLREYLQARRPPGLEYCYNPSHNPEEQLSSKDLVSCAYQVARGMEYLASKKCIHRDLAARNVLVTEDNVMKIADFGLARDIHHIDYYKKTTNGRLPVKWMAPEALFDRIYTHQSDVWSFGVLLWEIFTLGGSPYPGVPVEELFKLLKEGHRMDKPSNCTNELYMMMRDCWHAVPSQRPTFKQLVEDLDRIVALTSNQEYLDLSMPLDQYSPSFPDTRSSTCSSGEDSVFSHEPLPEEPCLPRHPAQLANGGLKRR
Fes, sequence (P07332 whole entry, looked up): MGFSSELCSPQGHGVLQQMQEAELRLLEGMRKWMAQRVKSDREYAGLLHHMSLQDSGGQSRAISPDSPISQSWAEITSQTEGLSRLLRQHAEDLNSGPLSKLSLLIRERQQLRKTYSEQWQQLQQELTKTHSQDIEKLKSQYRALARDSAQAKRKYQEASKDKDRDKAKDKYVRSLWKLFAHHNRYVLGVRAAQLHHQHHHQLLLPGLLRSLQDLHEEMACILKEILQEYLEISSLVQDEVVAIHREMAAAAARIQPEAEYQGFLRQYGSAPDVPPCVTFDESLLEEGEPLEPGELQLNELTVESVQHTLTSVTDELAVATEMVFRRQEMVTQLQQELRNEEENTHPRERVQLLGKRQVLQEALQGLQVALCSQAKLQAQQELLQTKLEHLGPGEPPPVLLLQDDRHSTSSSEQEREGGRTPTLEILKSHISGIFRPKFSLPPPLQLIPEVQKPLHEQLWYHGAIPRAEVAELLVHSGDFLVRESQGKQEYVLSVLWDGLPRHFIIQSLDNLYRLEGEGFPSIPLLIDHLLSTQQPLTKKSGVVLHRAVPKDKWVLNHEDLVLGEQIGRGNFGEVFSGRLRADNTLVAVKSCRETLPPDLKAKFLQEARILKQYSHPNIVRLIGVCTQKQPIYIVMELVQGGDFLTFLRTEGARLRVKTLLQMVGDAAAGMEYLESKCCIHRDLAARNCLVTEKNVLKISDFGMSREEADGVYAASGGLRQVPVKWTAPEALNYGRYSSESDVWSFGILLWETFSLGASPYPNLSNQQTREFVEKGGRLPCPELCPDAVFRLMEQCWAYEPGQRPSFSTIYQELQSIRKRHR

Row | Sequence | phosphorylation enrichment (AncSZ) | phosphorylation enrichment (MERTK) | phosphorylation enrichment (EPHB1) | phosphorylation enrichment (c-Abl (mouse)) | phosphorylation enrichment (FGFR1) | phosphorylation enrichment (FGFR3) | phosphorylation enrichment (Fyn) | phosphorylation enrichment (Fer (mouse)) | phosphorylation enrichment (EPHB2) | phosphorylation enrichment (Fes) | phosphorylation enrichment (Hck) | phosphorylation enrichment (c-Src) | phosphorylation enrichment (Jak2) | SH2 binding enrichment (c-Src SH2) | SH2 binding enrichment (SHP2-C SH2) | SH2 binding enrichment (Grb2 SH2)
1 | SFPSTYRYERG [INPPL1_Y661_P659S] | 0.484 | 0.455 | 0.453 | 0.52 | 0.39 | 0.449 | 0.439 | 0.418 | 0.397 | 0.813 | 0.392 | 0.463 | 0.767 | 0.633 | 0.728 | 0.987
2 | SFTDPYAQPPL [KMT2D_Y2378_YF] | 0.787 | 0.468 | 0.475 | 0.502 | 0.487 | 0.607 | 0.531 | 0.411 | 0.527 | 0.832 | 0.502 | 0.54 | 0.722 | 0.534 | 0.656 | 0.651
3 | SGRSGYCLGTR [SCO1_Y60_P58S] | 0.586 | 0.55 | 0.309 | 0.514 | 0.518 | 0.432 | 0.341 | 0.399 | 0.535 | 0.834 | 0.348 | 0.424 | 0.617 | 1.01 | 0.752 | 1.19
4 | SGSFRYGSSCE [SELE_Y390] | 0.642 | 0.388 | 0.412 | 0.486 | 0.393 | 0.554 | 0.45 | 0.353 | 0.456 | 0.801 | 0.47 | 0.466 | 0.644 | 0.528 | 0.747 | 0.748
5 | SHLLRYLSWTV [CLCNKB_Y93] | 1.24 | 0.37 | 0.553 | 0.781 | 0.684 | 0.7 | 0.468 | 0.478 | 0.528 | 1.23 | 0.544 | 0.368 | 1.06 | 0.553 | 0.724 | 0.9
6 | SHPSSYTTHPQ [NIPBL_Y195] | 0.412 | 0.463 | 0.362 | 0.417 | 0.459 | 0.404 | 0.441 | 0.467 | 0.384 | 0.82 | 0.46 | 0.478 | 0.492 | 0.477 | 0.723 | 0.728
7 | SIFKDYFRFNF [PLA2G2D_Y85_YF] | 1.18 | 0.579 | 0.523 | 0.821 | 3.99 | 2.58 | 0.495 | 0.428 | 0.537 | 1.19 | 0.481 | 0.643 | 2.8 | 1.27 | 1.62 | 1.77
8 | SIKHKYVTALY [KCNH2_Y611_D609H] | 0.537 | 0.407 | 0.399 | 0.444 | 0.45 | 0.594 | 0.43 | 0.398 | 0.4 | 0.582 | 0.524 | 0.398 | 0.528 | 0.484 | 0.63 | 0.761
9 | SIKNKYVTALF [KCNH2_Y611_D609N_YF] | 0.672 | 0.41 | 0.394 | 0.487 | 0.417 | 0.507 | 0.402 | 0.371 | 0.459 | 0.653 | 0.465 | 0.41 | 0.566 | 0.671 | 1.06 | 0.994
10 | SKDQIYPMKLK [RANBP17_Y823] | 0.451 | 0.355 | 0.29 | 0.449 | 0.386 | 0.437 | 0.417 | 0.336 | 0.458 | 0.533 | 0.361 | 0.572 | 0.493 | 0.446 | 0.764 | 0.804
11 | SKNSKYNAGST [PSEN1_Y315_E318G] | 0.535 | 0.536 | 0.307 | 0.677 | 0.358 | 0.439 | 0.59 | 0.436 | 0.654 | 0.776 | 0.442 | 0.737 | 0.608 | 0.349 | 0.557 | 0.581
12 | SLDLSYYHTSS [EMD_Y181_P183H] | 1.05 | 0.578 | 0.765 | 0.603 | 1.53 | 1.19 | 0.543 | 0.453 | 0.58 | 0.951 | 0.554 | 0.524 | 1.71 | 0.867 | 0.692 | 0.746
13 | SLDLSYYPTSS [EMD_Y181] | 1.42 | 0.661 | 0.614 | 0.803 | 2.62 | 2.18 | 0.515 | 0.507 | 0.566 | 0.947 | 0.617 | 0.583 | 4.37 | 1.27 | 0.819 | 0.921
14 | SLFNGYVFSGM [NEIL3_Y71_V76M_YF] | 0.954 | 0.435 | 0.532 | 0.697 | 0.487 | 0.629 | 0.421 | 0.504 | 0.541 | 1.07 | 0.531 | 0.482 | 1.08 | 1.45 | 1.1 | 0.938
15 | SLGKGYYDGGC [MC4R_Y35_S36Y] | 0.96 | 0.514 | 0.65 | 0.841 | 0.635 | 0.68 | 0.611 | 0.648 | 0.591 | 1.33 | 0.552 | 0.543 | 1.03 | 0.727 | 0.59 | 0.741
16 | SLGSPYGQPPR [PDLIM4_Y137] | 0.747 | 0.378 | 0.413 | 0.486 | 0.426 | 0.526 | 0.553 | 0.356 | 0.448 | 0.771 | 0.365 | 0.461 | 0.484 | 0.501 | 0.563 | 1.06
17 | SLKEFYGEDAK [ALDH3A1_Y272] | 0.929 | 0.388 | 0.434 | 0.561 | 0.472 | 0.692 | 0.51 | 0.588 | 0.472 | 1.08 | 0.501 | 0.44 | 0.903 | 0.511 | 0.599 | 0.916

Row | Sequence | phosphorylation enrichment (AncSZ) | phosphorylation enrichment (MERTK) | phosphorylation enrichment (EPHB1) | phosphorylation enrichment (c-Abl (mouse)) | phosphorylation enrichment (FGFR1) | phosphorylation enrichment (FGFR3) | phosphorylation enrichment (Fyn) | phosphorylation enrichment (Fer (mouse)) | phosphorylation enrichment (EPHB2) | phosphorylation enrichment (Fes) | phosphorylation enrichment (Hck) | phosphorylation enrichment (c-Src) | phosphorylation enrichment (Jak2) | SH2 binding enrichment (c-Src SH2) | SH2 binding enrichment (SHP2-C SH2) | SH2 binding enrichment (Grb2 SH2)
18 | SLNEGYAKDFD [FBP1_Y216_R218K] | 1.02 | 0.437 | 0.508 | 0.589 | 0.566 | 0.716 | 0.534 | 0.511 | 0.6 | 0.937 | 0.525 | 0.371 | 0.71 | 0.598 | 0.84 | 0.788
19 | SLQFEYVHYGG [CDC14A_Y591_S589F] | 1.06 | 0.348 | 0.556 | 0.405 | 0.797 | 0.742 | 0.516 | 0.481 | 0.628 | 0.904 | 0.551 | 0.465 | 0.766 | 0.609 | 0.523 | 0.686
20 | SMAKFYASEIA [ACADSB_Y373_YF] | 0.686 | 0.437 | 0.403 | 0.588 | 0.513 | 0.604 | 0.434 | 0.61 | 0.472 | 0.803 | 0.518 | 0.464 | 0.619 | 0.393 | 0.674 | 0.788
21 | SNYRAYATEPQ [TNNI3_Y29_H34Q] | 0.699 | 0.428 | 0.461 | 0.464 | 0.389 | 0.475 | 0.419 | 0.444 | 0.467 | 0.72 | 0.497 | 0.44 | 0.597 | 0.384 | 0.672 | 0.75
22 | SRGRQYQELPR [KCNH2_Y1009] | 0.512 | 0.36 | 0.316 | 0.463 | 0.4 | 0.423 | 0.317 | 0.349 | 0.347 | 0.462 | 0.527 | 0.441 | 0.455 | 1.29 | 0.565 | 0.925
23 | SRIWVYNHFRC [BRCA2_Y2621_W2626C_YF] | 1.16 | 0.466 | 0.638 | 0.976 | 0.575 | 0.937 | 0.547 | 0.653 | 0.672 | 1.43 | 0.543 | 0.483 | 1.19 | 0.558 | 0.589 | 0.869
24 | SSFSGYIMMPN [LEF1_Y114_YF] | 1.02 | 0.562 | 0.433 | 0.603 | 1.53 | 1.39 | 0.534 | 0.401 | 1.47 | 0.934 | 0.421 | 0.4 | 3.33 | 2.08 | 1.03 | 0.999
25 | SSSPTYLDLPF [GLI3_Y168_P169L] | 0.659 | 1.12 | 8.94 | 0.681 | 5.82 | 3.79 | 0.638 | 0.621 | 2.73 | 0.667 | 2.25 | 0.647 | 0.592 | 0.464 | 0.57 | 0.786
26 | STKELYEKYMI | 0.805 | 0.412 | 0.504 | 0.518 | 0.484 | 0.591 | 0.602 | 5.61 | 0.594 | 0.825 | 0.72 | 0.821 | 0.69 | 0.891 | 0.63 | 0.798
27 | SVKVYYKKCWS [EPHA7_Y202] | 0.951 | 0.379 | 0.549 | 1.2 | 0.414 | 0.733 | 0.352 | 0.483 | 0.432 | 1.25 | 0.424 | 0.432 | 1.21 | 0.393 | 0.521 | 0.716
28 | SVMAEYGLFAA [VSX2_Y219_G223A_YF] | 0.822 | 0.396 | 0.484 | 0.675 | 0.505 | 0.564 | 5.82 | 0.664 | 0.578 | 0.845 | 2.76 | 4.95 | 0.734 | 0.462 | 0.627 | 0.881
29 | SVSVNYGDLVQ [GRAP_Y101_Q104L] | 0.745 | 0.42 | 0.516 | 0.61 | 0.565 | 0.633 | 0.506 | 0.54 | 0.557 | 0.855 | 0.476 | 0.419 | 0.728 | 0.479 | 0.695 | 0.824
30 | SVTCTYSPAFN [TP53_Y126_L130F] | 1.35 | 0.418 | 0.8 | 1 | 0.49 | 0.897 | 0.518 | 0.553 | 0.59 | 1.51 | 0.592 | 0.66 | 1.31 | 0.463 | 0.646 | 0.664
31 | SVTCTYSPAHN [TP53_Y126_L130H] | 1.37 | 0.663 | 0.773 | 1.17 | 0.502 | 0.865 | 0.497 | 0.799 | 0.705 | 1.59 | 0.517 | 0.802 | 2.08 | 0.367 | 0.605 | 0.644
32 | SVTCTYSPVLN [TP53_Y126_A129V] | 1.37 | 0.435 | 0.795 | 0.804 | 0.558 | 0.831 | 0.613 | 1.02 | 0.692 | 1.6 | 0.876 | 0.815 | 1.21 | 0.538 | 0.683 | 0.78
33 | SVTCTYSRALN [TP53_Y126_P128R] | 1.09 | 0.401 | 0.626 | 0.916 | 0.461 | 0.796 | 0.429 | 0.5 | 0.602 | 1.28 | 0.523 | 0.494 | 1.07 | 0.46 | 0.596 | 0.62
